B1: Sarcoplasmic reticulum histidine-rich calcium-binding protein (Homo sapiens), P23327 (parent)
chain: MGHHRPWLHASVLWAGVASLLLPPAMTQQLRGDGLGFRNRNNSTGVAGLSEEASAELRHHLHSPRDHPDENKDVSTENGHHFWSHPDREKEDEDVSKEYGHLLPGHRSQDHKVGDEGVSGEEVFAEHGGQARGHRGHGSEDTEDSAEHRHHLPSHRSHSHQDEDEDEVVSSEHHHHILRHGHRGHDGEDDEGEEEEEEEEEEEEASTEYGHQAHRHRGHGSEEDEDVSDGHHHHGPSHRHQGHEEDDDDDDDDDDDDDDDDVSIEYRHQAHRHQGHGIEEDEDVSDGHHHRDPSHRHRSHEEDDNDDDDVSTEYGHQAHRHQDHRKEEVEAVSGEHHHHVPDHRHQGHRDEEEDEDVSTERWHQGPQHVHHGLVDEEEEEEEITVQFGHYVASHQPRGHKSDEEDFQDEYKTEVPHHHHHRVPREEDEEVSAELGHQAPSHRQSHQDEETGHGQRGSIKEMSHHPPGHTVVKDRSHLRKDDSEEEKEKEEDPGSHEEDDESSEQGEKGTHHGSRDQEDEEDEEEGHGLSLNQEEEEEEDKEEEEEEEDEERREERAEVGAPLSPDHSEEEEEEEEGLEEDEPRFTIIPNPLDRREEAGGASSEEESGEDTGPQDAQEYGNYQPGSLCGYCSFCNRCTECESCHCDEENMGEHCDQCQHCQFCYLCPLVCETVCAPGSYVDYFSSSLYQALADMLETPEP

Variants of: B1
Details: with ryr2_mouse Ryr2, E9Q401
Chain of ryr2_mouse Ryr2, E9Q401 (E9Q401 whole entry): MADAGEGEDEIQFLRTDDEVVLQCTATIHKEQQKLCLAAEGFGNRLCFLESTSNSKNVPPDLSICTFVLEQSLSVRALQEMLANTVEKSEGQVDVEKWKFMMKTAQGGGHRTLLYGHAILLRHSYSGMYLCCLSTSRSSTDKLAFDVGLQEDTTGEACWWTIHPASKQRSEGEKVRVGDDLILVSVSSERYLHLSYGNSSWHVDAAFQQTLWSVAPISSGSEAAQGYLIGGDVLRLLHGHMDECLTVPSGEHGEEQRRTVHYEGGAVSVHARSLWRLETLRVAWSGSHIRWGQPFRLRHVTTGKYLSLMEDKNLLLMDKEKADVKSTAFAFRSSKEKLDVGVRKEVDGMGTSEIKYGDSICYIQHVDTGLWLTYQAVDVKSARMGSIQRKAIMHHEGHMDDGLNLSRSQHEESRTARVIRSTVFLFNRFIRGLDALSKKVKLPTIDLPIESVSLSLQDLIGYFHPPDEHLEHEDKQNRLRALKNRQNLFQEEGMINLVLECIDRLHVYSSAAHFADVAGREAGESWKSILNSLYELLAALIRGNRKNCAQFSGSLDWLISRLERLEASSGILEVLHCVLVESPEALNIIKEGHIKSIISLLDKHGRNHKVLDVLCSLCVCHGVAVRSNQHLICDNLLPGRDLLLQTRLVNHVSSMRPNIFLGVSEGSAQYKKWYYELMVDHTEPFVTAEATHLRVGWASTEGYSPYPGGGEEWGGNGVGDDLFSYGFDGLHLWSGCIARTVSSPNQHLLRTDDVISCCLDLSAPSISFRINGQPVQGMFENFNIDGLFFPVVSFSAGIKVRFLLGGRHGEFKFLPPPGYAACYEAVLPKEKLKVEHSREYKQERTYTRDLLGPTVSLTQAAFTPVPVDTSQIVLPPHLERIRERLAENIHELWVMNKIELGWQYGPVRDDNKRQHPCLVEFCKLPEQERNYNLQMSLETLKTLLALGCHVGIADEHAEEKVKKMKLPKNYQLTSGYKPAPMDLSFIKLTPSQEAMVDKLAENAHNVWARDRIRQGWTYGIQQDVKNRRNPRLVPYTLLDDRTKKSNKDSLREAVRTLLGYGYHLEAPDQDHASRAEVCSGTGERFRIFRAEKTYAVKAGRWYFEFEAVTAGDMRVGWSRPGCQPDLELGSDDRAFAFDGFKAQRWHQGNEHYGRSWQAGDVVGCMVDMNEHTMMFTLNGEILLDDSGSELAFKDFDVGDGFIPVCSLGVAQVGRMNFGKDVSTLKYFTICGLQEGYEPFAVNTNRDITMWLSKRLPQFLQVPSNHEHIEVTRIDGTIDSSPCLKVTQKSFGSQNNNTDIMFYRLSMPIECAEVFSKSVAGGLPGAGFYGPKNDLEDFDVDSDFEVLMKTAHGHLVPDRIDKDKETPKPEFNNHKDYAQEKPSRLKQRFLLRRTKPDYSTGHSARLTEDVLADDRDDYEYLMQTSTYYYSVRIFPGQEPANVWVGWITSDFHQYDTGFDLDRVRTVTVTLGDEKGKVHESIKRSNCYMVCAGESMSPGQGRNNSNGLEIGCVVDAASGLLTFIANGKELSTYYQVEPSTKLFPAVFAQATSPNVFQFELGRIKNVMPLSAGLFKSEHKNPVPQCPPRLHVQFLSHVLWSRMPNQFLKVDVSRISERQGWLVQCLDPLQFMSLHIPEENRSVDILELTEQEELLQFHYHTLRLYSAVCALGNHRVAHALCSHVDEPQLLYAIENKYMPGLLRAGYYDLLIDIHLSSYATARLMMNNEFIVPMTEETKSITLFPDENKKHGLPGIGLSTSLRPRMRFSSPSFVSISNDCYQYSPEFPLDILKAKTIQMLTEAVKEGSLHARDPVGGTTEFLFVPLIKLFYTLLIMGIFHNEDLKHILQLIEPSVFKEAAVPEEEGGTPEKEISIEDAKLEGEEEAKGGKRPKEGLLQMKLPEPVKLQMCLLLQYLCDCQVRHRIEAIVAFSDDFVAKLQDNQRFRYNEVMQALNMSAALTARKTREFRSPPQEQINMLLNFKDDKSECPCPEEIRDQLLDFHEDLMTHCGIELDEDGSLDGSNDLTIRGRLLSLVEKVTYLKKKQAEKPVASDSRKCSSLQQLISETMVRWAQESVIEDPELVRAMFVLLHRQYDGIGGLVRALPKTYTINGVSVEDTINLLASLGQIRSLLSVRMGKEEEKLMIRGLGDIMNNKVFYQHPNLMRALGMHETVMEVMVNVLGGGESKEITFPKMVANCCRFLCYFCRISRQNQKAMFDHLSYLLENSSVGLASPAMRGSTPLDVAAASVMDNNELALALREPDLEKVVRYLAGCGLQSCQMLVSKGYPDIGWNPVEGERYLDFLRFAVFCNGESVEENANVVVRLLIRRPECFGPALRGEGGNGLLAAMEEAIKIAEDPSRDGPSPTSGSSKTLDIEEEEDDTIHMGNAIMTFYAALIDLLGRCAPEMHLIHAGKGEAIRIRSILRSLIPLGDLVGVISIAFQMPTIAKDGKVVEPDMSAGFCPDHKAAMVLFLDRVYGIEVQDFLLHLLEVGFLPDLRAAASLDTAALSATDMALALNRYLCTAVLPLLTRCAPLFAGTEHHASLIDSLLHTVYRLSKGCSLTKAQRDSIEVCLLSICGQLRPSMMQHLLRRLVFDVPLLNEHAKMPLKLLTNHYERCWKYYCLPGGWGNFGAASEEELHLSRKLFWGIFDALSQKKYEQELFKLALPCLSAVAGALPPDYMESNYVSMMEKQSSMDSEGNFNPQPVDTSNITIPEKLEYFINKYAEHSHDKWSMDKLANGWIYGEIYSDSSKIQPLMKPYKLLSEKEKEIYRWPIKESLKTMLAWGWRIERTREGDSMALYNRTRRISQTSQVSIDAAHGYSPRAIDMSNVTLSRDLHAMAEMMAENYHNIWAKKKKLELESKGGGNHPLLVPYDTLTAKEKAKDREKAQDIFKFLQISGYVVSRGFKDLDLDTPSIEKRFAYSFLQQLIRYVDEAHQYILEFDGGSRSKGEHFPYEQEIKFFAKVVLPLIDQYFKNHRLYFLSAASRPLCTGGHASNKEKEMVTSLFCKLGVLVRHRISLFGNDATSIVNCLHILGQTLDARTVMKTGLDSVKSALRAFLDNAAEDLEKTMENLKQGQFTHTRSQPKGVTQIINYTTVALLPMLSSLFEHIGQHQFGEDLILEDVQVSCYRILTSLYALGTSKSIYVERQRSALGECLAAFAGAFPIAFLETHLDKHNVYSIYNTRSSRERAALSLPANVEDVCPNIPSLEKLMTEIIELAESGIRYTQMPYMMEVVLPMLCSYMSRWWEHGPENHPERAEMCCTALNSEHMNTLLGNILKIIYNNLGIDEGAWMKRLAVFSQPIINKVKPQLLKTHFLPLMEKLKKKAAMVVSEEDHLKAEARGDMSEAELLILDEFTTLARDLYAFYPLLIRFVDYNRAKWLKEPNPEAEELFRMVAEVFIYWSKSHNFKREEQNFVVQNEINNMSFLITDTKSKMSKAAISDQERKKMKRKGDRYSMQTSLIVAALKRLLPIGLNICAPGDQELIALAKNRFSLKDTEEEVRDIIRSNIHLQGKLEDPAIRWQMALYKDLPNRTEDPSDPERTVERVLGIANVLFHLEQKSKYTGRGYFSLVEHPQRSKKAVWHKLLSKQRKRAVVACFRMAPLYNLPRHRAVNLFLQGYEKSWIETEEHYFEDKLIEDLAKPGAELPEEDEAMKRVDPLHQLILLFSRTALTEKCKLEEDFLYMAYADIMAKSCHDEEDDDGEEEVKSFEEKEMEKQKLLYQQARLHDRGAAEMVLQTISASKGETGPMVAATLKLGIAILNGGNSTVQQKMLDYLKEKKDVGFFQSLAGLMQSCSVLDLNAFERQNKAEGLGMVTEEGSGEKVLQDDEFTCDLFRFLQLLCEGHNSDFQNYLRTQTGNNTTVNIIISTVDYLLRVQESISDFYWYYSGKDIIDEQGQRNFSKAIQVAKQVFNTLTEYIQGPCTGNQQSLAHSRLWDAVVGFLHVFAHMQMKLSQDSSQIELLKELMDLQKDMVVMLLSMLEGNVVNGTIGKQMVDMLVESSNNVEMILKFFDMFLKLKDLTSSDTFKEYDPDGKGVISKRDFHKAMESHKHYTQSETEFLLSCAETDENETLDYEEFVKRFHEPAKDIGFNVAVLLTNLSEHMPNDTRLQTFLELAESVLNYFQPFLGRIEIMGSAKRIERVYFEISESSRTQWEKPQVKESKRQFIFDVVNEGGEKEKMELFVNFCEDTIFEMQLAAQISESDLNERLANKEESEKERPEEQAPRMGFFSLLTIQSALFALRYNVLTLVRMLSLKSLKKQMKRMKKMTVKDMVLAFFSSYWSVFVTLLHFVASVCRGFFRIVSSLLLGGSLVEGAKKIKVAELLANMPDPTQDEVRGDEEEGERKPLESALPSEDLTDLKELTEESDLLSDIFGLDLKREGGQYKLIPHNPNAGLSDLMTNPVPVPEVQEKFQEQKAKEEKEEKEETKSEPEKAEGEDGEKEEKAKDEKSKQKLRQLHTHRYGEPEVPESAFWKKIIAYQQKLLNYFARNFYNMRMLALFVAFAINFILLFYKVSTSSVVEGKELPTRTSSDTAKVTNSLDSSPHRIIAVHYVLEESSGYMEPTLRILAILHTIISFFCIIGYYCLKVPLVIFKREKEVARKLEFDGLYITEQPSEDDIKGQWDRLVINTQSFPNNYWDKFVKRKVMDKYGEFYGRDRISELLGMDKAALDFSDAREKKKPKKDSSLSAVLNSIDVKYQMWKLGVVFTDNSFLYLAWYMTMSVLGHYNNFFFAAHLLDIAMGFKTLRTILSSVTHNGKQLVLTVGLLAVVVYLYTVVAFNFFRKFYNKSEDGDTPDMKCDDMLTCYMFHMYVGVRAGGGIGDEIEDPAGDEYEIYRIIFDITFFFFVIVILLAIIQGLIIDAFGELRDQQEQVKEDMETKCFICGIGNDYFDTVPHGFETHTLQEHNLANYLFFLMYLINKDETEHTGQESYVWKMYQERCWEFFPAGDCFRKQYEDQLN

Variant	effect of a mutation on the interaction
S96A	decreasing interaction strength
